Assay results from publication PMC4482739, “MamA as a Model Protein for Structure-Based Insight into the Evolutionary Origins of Magnetotactic Bacteria” (PLoS ONE, 2015).
Several values for one entry are separate records, joined by “and”; a condition that tells them apart may be missing. Equal entries are not always repeated.

Experiments:
[1] = molecular target: MamAΔ41 RS-1 TM (triple mutant E140A, K141A, E143A) (Desulfovibrio magneticus RS-1); test: SEC; Superdex 200, buffer E (10 mM HEPES pH 7.5, 0.5 M NaCl, 5 mM βME); sizes from elution volumes against a standard calibration curve
[2] = molecular target: MamAΔ41 RS-1 TM (triple mutant E140A, K141A, E143A) (Desulfovibrio magneticus RS-1); test: crystal structure; X-ray, 2.88 Å, space group I4; crystals from 0.1 M Tris pH 8.1, 0.75 M sodium potassium tartrate, 0.5% PEG monomethyl ether 5000; six monomers as two trimeric rings in the asymmetric unit
[3] = molecular target: MamAΔ41 from Desulfovibrio magneticus RS-1 (wild type) (Desulfovibrio magneticus RS-1); test: SEC; Superdex 200, buffer E (10 mM HEPES pH 7.5, 0.5 M NaCl, 5 mM βME); sizes from elution volumes against a standard calibration curve
[4] = molecular target: the molecule itself; test: SEC; Superdex 200; sizes from elution volumes against protein markers; buffer for these proteins not stated

## MamAΔ41 RS-1 TM (triple mutant E140A, K141A, E143A) (domain or fragment)
[1]
  stoichiometry N: 13 and 8
[2]
  stoichiometry N: 3

## MamAΔ41 from Desulfovibrio magneticus RS-1 (wild type) (domain or fragment)
[3]
  stoichiometry N: 8

B1: MamAΔ41 from Magnetospirillum gryphiswaldense MSR-1 (domain or fragment, UniProt Q93DY9 42-217, looked up)
chain: DDIRQVYYRDKGISHAKAGRYSEAVVMLEQVYDADAFDVEVALHLGIAYVKTGAVDRGTELLERSIADAPDNIKVATVLGLTYVQVQKYDLAVPLLVKVAEANPVNFNVRFRLGVALDNLGRFDEAIDSFKIALGLRPNEGKVHRAIAYSYEQMGSHEEALPHFKKANELDERSAV
notes: MamA of Magnetospirillum gryphiswaldense MSR-1, Δ41 mutant (the putative N-terminal TPR repeat removed); Trimer by SEC; also called MamAΔ41_(MSR-1)
[4]
  stoichiometry N: 3
